From patent US20180362643A1 (Amgen, published 2018)
Ends that are not written are not given here.

T1: human PACAP27 (human, not fully specified)
T1 construct: Natural isoform, amino acids 1-27 of PACAP38; also called peptide No. 1 (amino acids 1-27 of PACAP38)
T1 peptide: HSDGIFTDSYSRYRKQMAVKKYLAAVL

T2: amino terminal PACAP38 peptide (amino acids 1-13) (human)
T2 construct: also called N-terminal Peptide; N-terminal PACAP peptide
T2 peptide: HSDGIFTDSYSRY

T3: PACAP38 peptide fragment 6-35 (human)
T3 construct: also called peptide No. 4
T3 peptide: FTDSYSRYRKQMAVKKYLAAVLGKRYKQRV

T4: PACAP38 peptide fragment 11-27 (human)
T4 construct: also called peptide No. 8
T4 peptide: SRYRKQMAVKKYLAAVL

T5: PACAP38 peptide fragment 4-27 (human)
T5 construct: also called peptide No. 9
T5 peptide: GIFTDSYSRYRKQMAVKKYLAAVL

T6: PACAP38 peptide fragment 6-36 (human)
T6 construct: also called peptide No. 12
T6 peptide: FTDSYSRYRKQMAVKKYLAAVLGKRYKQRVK

T7: PACAP38 peptide fragment 27-38 (human, ends and bridges not checked)
T7 construct: also called peptide No. 6
T7 peptide: LGKRYKQRVKNK


Key:
Assay in all cases: SPR (Biacore 3000), solution competition with the peptide for antibody binding to immobilised full-length PACAP38; % inhibition
human PACAP27 = molecular target: T1, human PACAP27
[1] = molecular target: T2, amino terminal PACAP38 peptide (amino …)
[2] = molecular target: T3, PACAP38 peptide fragment 6-35
[3] = molecular target: T4, PACAP38 peptide fragment 11-27
[4] = molecular target: T5, PACAP38 peptide fragment 4-27
[5] = molecular target: T6, PACAP38 peptide fragment 6-36
[6] = molecular target: T7, PACAP38 peptide fragment 27-38

Row | Binder | binding result (human PACAP27) | binding result [1] | binding result [2] | binding result [3] | binding result [4] | binding result [5] | binding result [6]
1 | mAb2 (antibody, V domains shown, Rabbit monoclonal antibody (SLAM), recombinant; also called monoclonal anti-PACAP antibody 2; 2 (c81)) VH: QSLEESGGGLVQPEGSLTLTCTASGFSFNSSSYMCWVRQAPGKGLEWIGCIFTGSSGNTYYATWAQGRFTISKTSTTVTLEMTSLTAADTATYFCARDRAYFLVGYFYATYYFDLWGPGTLVTVSS VL: DVVMTQTPSPVSAQVGGTVTINCQASESIDSDLSWYQQKPGQPPKLLIYRTFTLESGVPSRFKGSGSGTDYTLTISDLECADAAIYYCQCTDGSSISGSYGWDAFGGGTEVVVKG | no binding (tested: 1:200 molar ratio (Ab:peptide)) | no binding (tested: 1:200 molar ratio (Ab:peptide)) | no binding (tested: 1:200 molar ratio (Ab:peptide)) | no binding (tested: 1:200 molar ratio (Ab:peptide)) | no binding (tested: 1:200 molar ratio (Ab:peptide)) | no binding (tested: 1:200 molar ratio (Ab:peptide)) | 
2 | mAb6 (antibody, V domains shown, Rabbit monoclonal antibody (SLAM), recombinant; also called monoclonal anti-PACAP antibody 6; 6 (c55)) VH: QLEESGGGLVQPGASLTLTCTTSGFSLSDNYLCWVRQAPGRGLEWVACIGIVLRSTGATYYASWAEGRFTISKTSPTTVTLEMTSLTAADTATYFCALDLGYGGPLWGPGTLVTVSS VL: AQVLTQTPASVSAAVGGTVTINCQASQSVYNNKNLAWYQQKPGQPPKLLIYFSSTLASGVPSRFRGSGSGTQFTLTISGVQCGDAATYYCLGEFGSIWAFGGGTEVVVKG |  |  |  |  |  |  | no binding (tested: 1:200 molar ratio (Ab:peptide))
